From article PMC6002714, “Bovine Herpesvirus 1 UL49.5 Interacts with gM and VP22 To Ensure Virus Cell-to-Cell Spread and Virion Incorporation: Novel Role for VP22 in gM-Independent UL49.5 Virion Incorporation” (Journal of Virology, 2018)

Molecular target: the molecule itself
Assay: non-reducing SDS-PAGE with immunoblot; lysates of virus-infected MDBK cells separated by SDS-PAGE without DTT (compared with +DTT), immunoblotted with anti-UL49.5 or anti-gM; shows only covalently (disulfide) linked complexes

B1: BHV-1 envelope glycoprotein M (gM) (natural protein)
chain: MAGSAQPAAVHWRLWLAQVGVFAALALLLLITLIGAASPGAGLPCFYAAIVNYNARNLSADGGAWAQRELGARHPALFLETPTTAAFSAYTAVVLLAVAAFDVAAAIIIRRENSGGFAAAYHMNALATLATPPGALLLGALAAWTLQAAVLLLSHKIMVLAAATYLAHAGAAAAFVGLFCTAGLPGAEYAQAVHALRERSPRAHRLLGPGRAVMINLAGGLLALIIGTAPLMLGQLLGAGLGLSLAQTVVAGVTVFCLAAVLFLVLTELVLSRYTQVLPGPAFGTLVAASCIAVASHDYFHQLRGVVRTQAPGLPLGVKLALAGVALLAVAMLVLRLVRACLHHRRKGSAFYGHVSAARQQAARYIARARSSRGMAPLEGDAAALLDRGVASDDEEAVYEADARPARQPYR
notes: glycoprotein M of bovine herpesvirus type 1, encoded by the UL10 gene; gM open reading frame nt 84816 to 86051 of GenBank JX898220 (complementary strand; residues up to 411); expressed from the viral genome; 36-kDa immature, EndoH-sensitive gM in infections with the C42S mutants; also called 43-kDa mature gM; 36-kDa immature gM; source: BHV-1 wt or UL49.5 mutant virus-infected MDBK cells, in …
- stoichiometry N: 2
